Assay results: patent US20040071710A1

Legend:
[1] = biological target: E2 BEVS, recombinant HCV genotype 1b E2 protein produced in insect cells using Baculovirus (hepatitis C virus genotype 1b); experiment: BIAcore 2000 (SPR)
[2] = biological target: E2 CHO, recombinant HCV genotype 1b E2 protein produced in mammalian CHO cells (hepatitis C virus genotype 1b); experiment: BIAcore 2000 (SPR)
[3] = biological target: E2 BEVS, recombinant HCV genotype 1b E2 protein produced in insect cells using Baculovirus (hepatitis C virus genotype 1b); experiment: ELISA, E2-BEVS coated at 2 µg/ml, antibody at 1 µg/ml
[4] = biological target: E2 BEVS, recombinant HCV genotype 1b E2 protein produced in insect cells using Baculovirus (hepatitis C virus genotype 1b); experiment: ELISA, E2-BEVS coated at 2 µg/ml, antibody at 0.5 µg/ml
[5] = biological target: E2 BEVS, recombinant HCV genotype 1b E2 protein produced in insect cells using Baculovirus (hepatitis C virus genotype 1b); experiment: ELISA, E2-BEVS coated at 2 µg/ml, antibody at 0.25 µg/ml
[6] = biological target: E2 BEVS, recombinant HCV genotype 1b E2 protein produced in insect cells using Baculovirus (hepatitis C virus genotype 1b); experiment: ELISA, E2-BEVS coated at 2 µg/ml, antibody at 0.125 µg/ml
[7] = biological target: E2 BEVS, recombinant HCV genotype 1b E2 protein produced in insect cells using Baculovirus (hepatitis C virus genotype 1b); experiment: ELISA, E2-BEVS coated at 2 µg/ml, antibody at 0.0078 µg/ml
[8] = biological target: E2 BEVS, recombinant HCV genotype 1b E2 protein produced in insect cells using Baculovirus (hepatitis C virus genotype 1b); experiment: ELISA, E2-BEVS coated at 2 µg/ml, antibody at 0.0156 µg/ml
[9] = biological target: E2 BEVS, recombinant HCV genotype 1b E2 protein produced in insect cells using Baculovirus (hepatitis C virus genotype 1b); experiment: ELISA, E2-BEVS coated at 2 µg/ml, antibody at 0.0625 µg/ml
[10] = biological target: E2 BEVS, recombinant HCV genotype 1b E2 protein produced in insect cells using Baculovirus (hepatitis C virus genotype 1b); experiment: ELISA, E2-BEVS coated at 2 µg/ml, antibody at 0.03125 µg/ml
[11] = biological target: HCV particles from sera of HCV infected patients (hepatitis C virus genotype 1b and 1a/1b); experiment: immuno magnetic separation of virus from patient serum, RT-PCR detection

Sequence of E2 CHO, recombinant HCV genotype 1b E2 protein produced in mammalian CHO cells (hepatitis C virus genotype 1b) (P26664 384-714): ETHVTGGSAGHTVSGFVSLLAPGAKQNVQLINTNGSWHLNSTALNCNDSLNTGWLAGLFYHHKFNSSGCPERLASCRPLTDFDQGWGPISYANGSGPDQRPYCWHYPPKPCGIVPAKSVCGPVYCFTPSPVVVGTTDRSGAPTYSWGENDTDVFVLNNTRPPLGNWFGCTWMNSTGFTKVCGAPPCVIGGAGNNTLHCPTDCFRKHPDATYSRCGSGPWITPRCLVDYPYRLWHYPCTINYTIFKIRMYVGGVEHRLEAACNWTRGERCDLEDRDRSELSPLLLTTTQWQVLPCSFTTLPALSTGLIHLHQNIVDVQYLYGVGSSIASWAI

B1: HCV-AB 68 (antibody, V domains shown)
VH: QVQLVESGGGVVQPGRSLRLSCATSGFPFSSYGMHWVRQAPGKGLEWVAVISYDGSNEHSIDSVKGRFTISRDNSKNRLYLQMKSLRAEDMAVYFCVRGAHRSSWSGKRFDYWGQGTLVTVSS
VL: DIQMTQSPSTLSASIGDRVTITCRASLNILTWLAWYQQKPGKAPKLLIYEASSLESGVPSRFSGSGSGTQFTLTISSLQPDDFATYYCQQSNTPWTFGQGTKVEIKR
- Kd [1]: 1.7 nM
- Kd [2]: 0.014 nM
- OD450 nm [3]: 0.439 OD450 nm
- OD450 nm [4]: 0.362 OD450 nm
- OD450 nm [5]: 0.305 OD450 nm
- OD450 nm [6]: 0.267 OD450 nm
- OD450 nm [7]: 0.065 OD450 nm
- OD450 nm [8]: 0.12 OD450 nm
- OD450 nm [9]: 0.204 OD450 nm
- OD450 nm [10]: 0.171 OD450 nm
- percentage of bound virus [11]: 50%
